In article PMC3675483 (Nucleic Acids Research, 2013):

What was measured:
[1] = molecular target: Selenomethionine-substituted SBV N protein (Schmallenberg virus); assay: crystal structure
[2] = molecular target: Schmallenberg virus (SBV) nucleocapsid (N) protein (Schmallenberg virus); assay: SEC
[3] = molecular target: Schmallenberg virus (SBV) nucleocapsid (N) protein (Schmallenberg virus); assay: negative-stain electron microscopy with single-particle averaging
[4] = molecular target: Schmallenberg virus (SBV) nucleocapsid (N) protein (Schmallenberg virus); assay: crystal structure
[5] = molecular target: BUNV N (nucleocapsid) wild type (Bunyamwera virus, UniProt P16495 1-233); assay: fluorescence polarization
[6] = molecular target: T1, SBV N (nucleocapsid) wild type (Schmallenberg virus isolate BH80/11-1, UniProt H2AM13 1-233); assay: fluorescence polarization
T1 sequence: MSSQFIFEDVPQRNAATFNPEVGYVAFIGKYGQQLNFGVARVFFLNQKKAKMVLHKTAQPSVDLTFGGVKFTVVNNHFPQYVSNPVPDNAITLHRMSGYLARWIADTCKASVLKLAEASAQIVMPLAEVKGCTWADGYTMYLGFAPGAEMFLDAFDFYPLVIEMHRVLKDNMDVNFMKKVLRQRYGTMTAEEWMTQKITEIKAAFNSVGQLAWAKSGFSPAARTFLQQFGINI

[7] = molecular target: the molecule itself; assay: SEC

Molecule: Selenomethionine-substituted SBV N protein (natural protein)
- stoichiometry N [1]: 4

Molecule: Schmallenberg virus (SBV) nucleocapsid (N) protein (natural protein)
- stoichiometry N [2]: 4
- stoichiometry N [3]: 4
- stoichiometry N [4]: 4

Molecule: AGUAGUGUACUCCACACUACAAACUUGCUAUUGUUGAAAAUCGCUGUG (ssRNA) [BUNV48AG]
- Kd [5]: 62.9 ± 5 nM
- Kd [6]: 21.3 ± 1 nM

B1: Bunyamwera virus (BUNV) nucleocapsid (N) protein (natural protein)
chain: MIELEFHDVAANTSSTFDPEVAYANFKRVHTTGLSYDHIRIFYIKGREIKTSLAKRSEWEVTLNLGGWKITVYNTNFPGNRNNPVPDDGLTLHRLSGFLARYLLEKMLKVSEPEKLIIKSKIINPLAEKNGITWNDGEEVYLSFFPGSEMFLGTFRFYPLAIGIYKVQRKEMEPKYLEKTMRQRYMGLEAATWTVSKLTEVQSALTVVSSLGWKKTNVSAAARDFLAKFGINM
- stoichiometry N [7]: 4
